Data reported in the DeepSol protein solubility set.

Assay: soluble on expression in E. coli; label from the status in PepcDB or PDB records

Row | Sequence | soluble on expression in E. coli
1 | MSLNPSKKKNNFNMQDPFAWQKINKQIRDANASQLDVLAKEFDTQETLPIYAYILERKNNFKKHYFIMPYYDNIKDYNKTRQALILAIARQESRFIPTAISVSYALGMMQFMPFLANHIGEKELKIPNFDQDFMFKPEIAYYFGNYHLNYLESRLKSPLFVAYAYNGGIGFTNRMLARNDMFKTGKFEPFLSMELVPYQESRIYGKKVLANYIVYRHLLNDSIKISDIFENLIQNKANDLNKEGHHHHHH | not soluble
2 | MSLNQGEQLPGNYRVEIYLNGEKVDVGEFPFHRPESPEEKELVPCLTVDDLIHYGIKIDKSSSDTDNKKNQCFKWNSIEGLKVNYDFDSQRVQITVPQLYLQDKKSSLAPVSLWNEGVAAFRMVYQTNIDISKQNDNQSTTRNSRYGRFTPGFNLGAWRFRSSVTWSKELGQSERWQRGYMWFERGINAIKSRLTLGESYTSSEVFDSIPFRGGMLATDDAMTPPEDSYYTPVVHGIAQSEAQVIIKQNGQIIFTRSVPPGPFALDNLPTLAVGGELDVTVRESNGEEQYFSVPFQTPAIALHEGYFKYSVMGGNIKKKEGHHHHHH | not soluble
3 | MSLNQLTDHVTLRHGATLNNRIVMSPMQTHSGLKGGFASDDTIQYYSARSRAAGMLITEFHYVSENGGPAYVPGYPEQLGAYSDAHLEGLRKTVQALKKDGNKAILQIHHAGRAAVGRHVNGLDVVAPSAIDFSFLDYPVRELTITEIDDIILDFGKATKRAIDAGFDGVEIHGANHYLIQQFFSKLSNLRTDKWGGSLNKRMAFPLAVVKEVKAIVDEYAPKGFIIGYRISPEELHGKNVGYDYTEALTLISEVIKYELDYIHLSLWAGYNSKPENSEKSYAELFKEILDDKTKLLIVGGIFGEDTATDAIENYADLIAVARGTLIDPNFAKKVTEGKGDTILHKISPETVEYSHLTPGLLEAFSREDSLGLPPLPGGETIRHLHTGKYDEGHHHHHH | soluble
4 | MSLNRDKPLKVMLVAAEASGDALGAGLAKALRARLGQGVTFVGIGGAKMAEQGVQSPFDIAQLSILGILESLKAYPRAMARLKDTVALAAREKPDVAVLIDSWGFNIRLAHALRRLDPTLPLVKYVAPQVWAYREGRAQALAKAVDLLLSIQPMDKAYFDAAGLQNVFVGNSALAKRFDHADPGRLRAAIGAAASQQILLVLPGSRPSEIERVMPAFEDAVRRLKVERPDLHIVVPAAYTVAEAVKARVAGWPFRAHVIEDEGLKDDAFLAGDVALACSGTVTTELALAGRPMVVGYKTGAVTYAIVKRLMKPRWITLFNIAAGKAVAPELIQHACEGEGLAREVALRLDDPDLRQRQTAEQYAALDRMGRGMPDPSEAAAEALLDFLSARGALGREGHHHHHH | not soluble
5 | MSLNREFDVTAPNQVWCGDITYIWAQGKWHYLAVVMDLYARRVLGWAFSKKSDTDLVIKALDMAYEQRGKPQGLLFHSDQGAQYGSRQFRKRLWRYRVRQSMSRRGNCYDNSPMARVFRSLKTEWIPAVGYMTAQEAQGDISHYLMHRYNRVRPHQFNDGLAPAQYEKTLTSEGHHHHHH | not soluble
6 | MSLNRPLRIGIVVGELSGDTLGEGFIKAIRARYPDAEFVGIGGPKMNALGCQSLFDMEELAVMGLVEVLGRLPRLLKVKAELVKYFTANPPDVFVGIDAPDFNLRLELSLKQAGIKTVHYVSPSVWAWRQNRIHGIAAATHLVLAFLPFEKAFYDKFNVPCEFIGHTLADSIPLASDKLAARQLLGLDEQRRWLAVLPGSRGSEMKMLAEPFIATCQKLQARYPDLGFVVALVNAKRRAQFEQAWQQVAPELNFVLVDDTARNVITAADAVMLASGTVALECMLLKRPMVVGYRVNAFTAFLAKRLLKTPYVSLPNILAGEELVKELLQDHCTVDNLYHEVSRLLESDNQALMDKFTEMHQWIRKDADQQAAQAVLHLIQKEGHHHHHH | not soluble
7 | MSLNRVLDILKDRSLTYHQQIKDLAAYAESTIEVLNIDDETKKLIDEGCICTLFEGNAPFRPRYIIPDYSLLMEKGCEFLNLSVPEDIWEATNNLLIFYKHVPSITTFPVYLGNIDELLEPFIEDEREAKRAIKLFLKHIDRTLTDSFVHANIGPRETVAGRLILESMDELQCAVPNLSMKYDLENTPESFINLCAKVALSTAKPSFANHKMDVKSFGTDRYAIASCYNGFHIGGGGYTLVRIKLNEVAKKATSVEDFLENVLPYVSTKMIQYIDERIRFLVEETQFFTSNFLVKEGFIQKKLFTGMFGVVGLAEAVNTLLGAEKQSDRFGYSEKANKLGLRIIEKLNKIVSEHEAKHVNCFGGHYVLHAQVGIDLDQNVSPGCRIPVGEEPELFNHIMQSAPFHKYFYNGIGDIFVFEDTYNDHPEALVDIIKGAFNSGIRYMSVYGSGADVVRVTGYLAKRSEVEKLERGEAVLNNTDLFAMGAKNNCHAFERKIREGHHHHHH | soluble
8 | MSLNSESLGLLQEFLKTHKYKEFRDQAKNLRAPFILQAIVSTPTTVKYYTQGRLIKCCETDSTGNITTSYTYNDKGQLTTTLSVTEKNGQPINEVQTSRLYDPQGHCIFEVKTNPKTKTDFYRRARRIGIDGSIESDSLKYMDGRYTVSSYNKQGLLTETKEYNKNGEMEGYTVNKYDDKGRMTESQHQNMLFVNSPNQILSQKELYEYDKYGYLTRIVYQRIFGNSQKTSGCLTCLYDEYGNRIDGDSYYEYDNTGQWICRTSYDNPQQVERIQYIYKEGHHHHHH | not soluble
9 | MSLNSIKDVDLSEITAGKKYWNVERPVEEEVMYFLLIDRFHDGKERISIPSTTGFGNTDQLQARCGGTIQGVIKNLKYISALGFTSIWINPFLQNNPETYHGYSIENFLEVDAQWGTKEDIVELVAQAHKLHIKVFFDIVLNHTGNNWSYVKENPRYNKGKQYAVKAWRYPDRPIPAELRNLNLYGRKGGIVKWEETPETWDGDIFELKDLIQDDSEIGHATLEILIAVYSYWFAVTDCDGFRIDAAKHIPPKWLNTFVDAMKALTASVHKTSFFIFAEIISNQSYISKYHTIDGYLDFDFHFSFVPNMYGEKKRKSAIQSQPRPVDKVPIRFLDNHDQVGQMPKHRIAYRMKEKALCNLLRAFLCMPGIPCIYYGTEQGLKGKGILDGSIRECLFNPDGKEDILNLDSPYARVIKEGIHLRKKLNLYTGDFQSCEIMAAKSHRCIALQVNGLASSKLIVYNLGPHNEVVSIKLSSPLTRTNKLVVYLYSNGDADNDDKTVVNDILHNITMHPYGFKVLELLNHQESVNEGHHHHHH | soluble
10 | MSLNTREKYLSNVNRLVIKVGSSTLTHPSGLLNFYKIEHIVRQIADLHNQGIKVILVSSGAIGAGIGKLRLKERPKTIPEKQAAAAVGQGVLMHTYEKLFAEYGQIVGQILITREDLSSKKRVVNVQNTFSALLDHGIIPIVNENDATVVEEIKFGDNDTLSARVASLIKADLLILLSDIDGLYDSNPAVNKNAVLIDTVNEVNEEVKASAGGAGSKLGTGGMATKIRAAEIATENGISMVIANGEKQEAIRNILNFENEGTLFIPKNKEGHHHHHH | soluble
11 | MSLNYNTPKVSIVVPSLNSISYIRECIDSILNQTLKDIEILCIDANSTDGTLEVLKNYEKKDKRLRVIISDKKSYGYQMNLGIKEAKGEYLGIVESDDYIKTNMYERLYEIAKKNDCEVVKGDFYIFAYGKTEYVNVLRNSCEDIYNYKVNWNKDIRIFLGSDGINPIGIYRLDLLRTNQIKLNETPGASYQDNGLWFQIFALAKSIYFINEAFYMLRRDNPNSSVKSKEKVYCACEEYDFIRDFLKKHPDLEKTLAPICALHRFGNYMFTLERIDERYKLDFLKRFSQDFRKILKDKELDENLFGNINMQRINKIIENPVIYYYFSRGARARLQNQLVYRLGKVVVEAKSFNKIIKLPFLMLKICLEHNFEHKVYRSIVQFRPDLKLLPLECYLDYHEALVIKEHLSYKFGKLILLSFKGWYKGKIFILPFMLKKRYKEYKNKMEGHHHHHH | soluble
12 | MSLQEIIGASLVFLCNEKCEVLEDYGVVFDEKIVEIGDYQSLTLKYPHLKAQFFENSVLLPAFINAHTHFEFSNNKASFDYGSFSGWLGSVLNNGGAILENCQGAIQNAISTQLKSGVGSVGAISNHLIEVNLLKESPLNAVVFLEFLGSSYSLEKLKAFEAKFKELKDLEDKKLKAALAVHAPYSVQKDMALSVIQLAKDSQSLLSTHFLESLEELEWVENSKGWFENFYQHFLKESHFKSLYKGANDYIDMFKDTHTLFVHNQFASLEALKRIKSQVKNAFLITCPFSNRLLSGQALDLERTKEAGLSVSVATDGLSSNISLSLLDELRAFLLTHNMPLLELAKIALLGATRHGAKALALNNGEIEANKRADLSVFGFNEKFTKEQAILQFLLHAKEVECLFLGGKRVIEGHHHHHH | soluble
13 | MSLQELPVPKPHQLKWHEAEMGAVFHYDLHVFDGIRYGQGNNRINPIEDYNIFNPTELNTDQWVQAAKAAGCKFAVLTATHETGFGLWQSDVNPYCLKAVKWRDGKGDIVRDFVNSCRKYGLQPGIYIGIRWNSLLGIHNFKAEGEGAFARNRQAWYKRLCEKMVTELCTRYGDLYMIWFDGGADDPRADGPDVEPIVNKYQPNCLFYHNIDRADFRWGGSETGTVEYPCWSTFPVPCSHHKRIESSIDQLELLKHGDKNGRYWVPAMADTPLRGANGRHEWFWEPDDENNIYPLNTLMDKYEKSVGRNATLILGLTPDPTGLIPAGDAQRLKEMGDEINRRFSSPIARISGQKKSLTLKLGKEQSVNYCIIQENIKNGERIRQYQIEAKVNGKWQTVCKGESVGHKRIEKFEPVEATALRLTVSESIALPDIINFSAYSVKEGHHHHHH | soluble
14 | MSLQFVSKARKGLVPQRCHRFQSCAYRSNQWRYRGRCDSIQFAVDKRVFIAGFGLYGSSCGSAEYSAKIEMKRQGVVLGQNLSKYFSDGSSNTFPVWFEYPVQIEPDTFYTASVILDGNELSYFGQEGMTEVQCGKVTVQFQCSSDSTNGTGVQGGQIPELIFYAEGHHHHHH | not soluble
15 | MSLQIVPYLIFNGNCREAFSCYHQHLGGTLEAMLPFGDSPECGDIPADWKDKIMHARLVVGSFALMASDNHPAYPYEGIKGCSISLNVDSKAEAERLFNALAEGGSVQMPLGPTFWAASFGMFTDRFGVAWMVNCEQDREGGSHHHHHH | soluble
16 | MSLQKTSFALLVAALQLASASALAATPPVADAIWFNGPIITIDDQHPKAQAVAVKDGKILAVGDRQHVLKNKGPATQMLDLKGATLLPGFVDPHGHVSMVGFQAASANLLPPPDGTNNSIPGLQETLRRFEQQSPIPKQFGVLFGFGYDDSQLQEQRHPTKADLDAVTRDLPIAIVHQSSHLGVLNSKALELAGIDASTPNPEGGVIRRVDGSQEPNGVLEENAFFNALIRIFPKLTADQAVDMLSAGQKLYVSYGYTTIQDGRSSPDQVKTAIKAAGDGKLLADIVSYPDILTPGVKQLMVAPWYHPSNQPVVYNQHFRIGGVKLTLDGSPQGKTAWLSQPYFKPPQGQDASYAGYGVVKDADALAIYKEALANRWQILSHTNGDRAIDQLLGSMRAAEQAYPGVDVRPVMIHGQTLRKDQVAELKQLKIFPSLFPMHTYYWGDWHRQSVLGPERAENISPTQWVLQAGMKFTTHHDAPVALPDSMRVLAATVNRTTRSGYVLGPDQRVTPLQALKAMTLWSAYQHFEEDRKGSITPGKLADFAVLSANPLTVKPETLSEIQVLKTVKEGRVIYERPAKVASEGHHHHHH | soluble
17 | MSLQLRSRAAFKLEFLLDRYRVVRKGDAVIEIGSSPGGWTQVLNSLARKIISIDLQEMEEIAGVRFIRCDIFKETIFDDIDRALREEGIEKVDDVVSDAMAKVSGIPSRDHAVSYQIGQRVMEIAVRYLRNGGNVLLKQFQGDMTNDFIAIWRKNFSSYKISKPPASRGSSSEIYIMFFGFKAEGHHHHHH | soluble
18 | MSLQRKRIVRERVVYVLDYMREGNPLDKHKFHRDKPLIQAVGEDYFLLLELTPLSYNLDFLPEDKIELDSNSSVKVDAHISYEDLTSVSRDNLPKILYKIVFEKEKVFVEIFNKAEPLTLRLHALELLPNIGKKTLRIILEERKKKPFESFKDIESRIGVKDVASILVERIIKEMQGGEKYYLFVYPLIPDENKRLEQQFIYVGYIEKLKEGHHHHHH | soluble
